According to IntAct's records for PubMed 11575918:

B1: RING finger protein Z (Lymphocytic choriomeningitis virus (strain Armstrong)), P18541 (parent)
chain: MGQGKSREEKGTNSTNRAEILPDTTYLGPLSCKSCWQKFDSLVRCHDHYLCRHCLNLLLSVSDRCPLCKYPLPTRLKISTAPSSPPPYEE

Variants of: B1
Settings: with if4e_human EIF4E

| Variant | effect of a mutation on the interaction |
| --- | --- |
| MGQGKSREEKGTNSTNRAEILPDTTYLGPLSCKSCWQKFDSLVRCHDHYLCRHCLNLLLSVSDRAPLAKYPLPTRLKISTAPSSPPPYEE | decreasing interaction |
| MGQGKSREEKGTNSTNRAEILPDTTYLGPLSGKSFWQKFDSLVRCHDHYLCRHCLNLLLSVSDRCPLCKYPLPTRLKISTAPSSPPPYEE | decreasing interaction |
